The target of the experiment is integrin α5β1 ectodomain (α5 F1–Y954/β1 Q1–D708) (UniProt P08648;P05556). The experiment in a line: fluorescence polarisation. (In general: Fluorescence polarisation rises when a labelled molecule tumbles more slowly, as on binding a larger partner.)
Sequence of integrin α5β1 ectodomain (α5 F1–Y954/β1 Q1–D708) (P08648 42-995, chain 1 of 2): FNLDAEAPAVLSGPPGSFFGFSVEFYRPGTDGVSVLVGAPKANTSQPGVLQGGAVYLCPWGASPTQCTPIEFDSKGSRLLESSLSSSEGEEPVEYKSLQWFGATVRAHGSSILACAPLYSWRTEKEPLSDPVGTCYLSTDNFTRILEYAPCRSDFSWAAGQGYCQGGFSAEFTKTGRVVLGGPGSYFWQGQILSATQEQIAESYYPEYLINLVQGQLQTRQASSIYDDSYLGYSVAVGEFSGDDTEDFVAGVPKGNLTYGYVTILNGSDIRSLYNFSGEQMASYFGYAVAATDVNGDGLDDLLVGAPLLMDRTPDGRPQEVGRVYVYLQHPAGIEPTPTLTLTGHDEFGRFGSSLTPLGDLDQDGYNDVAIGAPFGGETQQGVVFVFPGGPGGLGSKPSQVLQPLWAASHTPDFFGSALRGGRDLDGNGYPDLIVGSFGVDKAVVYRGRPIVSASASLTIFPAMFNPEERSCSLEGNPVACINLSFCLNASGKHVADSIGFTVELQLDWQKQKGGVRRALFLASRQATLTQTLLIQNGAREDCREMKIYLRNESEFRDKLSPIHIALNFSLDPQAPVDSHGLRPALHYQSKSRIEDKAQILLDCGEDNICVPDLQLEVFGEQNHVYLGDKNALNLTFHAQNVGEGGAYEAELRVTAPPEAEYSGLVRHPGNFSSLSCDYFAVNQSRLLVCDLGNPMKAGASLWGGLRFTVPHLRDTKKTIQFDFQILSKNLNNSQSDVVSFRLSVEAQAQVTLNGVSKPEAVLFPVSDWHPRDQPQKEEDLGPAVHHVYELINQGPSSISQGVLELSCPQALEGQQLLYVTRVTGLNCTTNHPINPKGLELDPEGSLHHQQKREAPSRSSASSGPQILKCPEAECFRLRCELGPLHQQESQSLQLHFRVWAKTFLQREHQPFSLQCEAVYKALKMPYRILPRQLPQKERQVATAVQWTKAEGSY
Sequence of integrin α5β1 ectodomain (α5 F1–Y954/β1 Q1–D708) (P05556 21-728, chain 2 of 2): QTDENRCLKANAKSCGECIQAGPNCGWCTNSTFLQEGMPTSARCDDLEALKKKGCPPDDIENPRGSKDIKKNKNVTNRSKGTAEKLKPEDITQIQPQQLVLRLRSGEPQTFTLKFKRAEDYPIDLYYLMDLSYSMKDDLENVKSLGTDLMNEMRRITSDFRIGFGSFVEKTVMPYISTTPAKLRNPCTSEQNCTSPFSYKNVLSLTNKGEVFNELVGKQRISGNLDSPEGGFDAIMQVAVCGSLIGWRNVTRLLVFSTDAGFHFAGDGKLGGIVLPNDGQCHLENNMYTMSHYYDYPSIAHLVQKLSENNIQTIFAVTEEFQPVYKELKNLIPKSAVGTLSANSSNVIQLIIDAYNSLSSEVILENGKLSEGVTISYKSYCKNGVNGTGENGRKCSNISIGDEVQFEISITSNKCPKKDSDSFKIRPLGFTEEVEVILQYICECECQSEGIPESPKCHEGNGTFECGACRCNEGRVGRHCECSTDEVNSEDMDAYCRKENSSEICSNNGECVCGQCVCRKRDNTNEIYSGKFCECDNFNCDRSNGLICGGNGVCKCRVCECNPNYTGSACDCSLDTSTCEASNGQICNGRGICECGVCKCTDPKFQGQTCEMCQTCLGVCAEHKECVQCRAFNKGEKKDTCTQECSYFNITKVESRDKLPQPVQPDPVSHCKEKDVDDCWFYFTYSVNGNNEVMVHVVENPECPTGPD

B1: fibronectin fragment Fn10 (V1416–T1509) (domain or fragment)
chain: not shown
B1: the binding result is “binds”.

Values taken from paper PMC9483561 (The Journal of Biological Chemistry, 2022).
